Experimental data: publication PMC7948479, “Allostery in the nitric oxide dioxygenase mechanism of flavohemoglobin” (The Journal of Biological Chemistry, 2020)
Read-outs that look alike come from different tables or passages of the source.

What was measured:
[1] = tested on: flavoHb heme (Fe^2+ / Fe^3+); details: for Kd: from slow phase; for time for 90% activity recovery following NO binding: calculated from k(NO)
Description: (§1) FAD and heme reduction were monitored by following the changes in flavoHb absorbance at 460 and 430 nm, respectively, with stopped-flow rapid mixing of 50 μM NADH and 10 μM flavoHb in N2-purged buffer ([4]). O2, NO, and CO association rate constants were determined by photolyzing 50 μM of the respective ferrous flavoHb species with a 300-ns pulse from a 577-nm laser and by spectrophotometrically following ligand reassociation in O2-, NO-, or CO-saturated buffer unless otherwise indicated ([4], [5]). […] Binding of NO was measured by the change of absorbance at 422 nm by applying a difference extinction coefficient of 0.040 μM^−1 cm^−1. O2 and CO dissociation rate constants were determined by stopped-flow rapid mixing with either CO or NO displacement ([4], [5]). The cuvette path length was 1.0 cm. All reactions were at 20 °C in filtered 100 mM sodium phosphate buffer, pH 7.0, containing 0.3 mM EDTA. Catalase (1000 U/ml) was included in all reactions containing O2 to scavenge H2O2 produced by the NADH oxidase activity of flavoHb and to regenerate O2.

[2] = biological target: flavoHb heme (Fe^2+ / Fe^3+) (Escherichia coli, UniProt P24232)
Description: as §1

E. coli flavoHb [3] = tested on: E. coli flavoHb
Description: as §1

E. coli flavoHb [4] = biological target: T1, E. coli flavoHb (Escherichia coli, UniProt P24232)
Description: as §1

E. coli flavoHb-NOD [5] = biological target: E. coli flavoHb-NOD (Escherichia coli, UniProt P24232); details: read-out: theoretical Km(O2) (Vmax/k'O2); cited from earlier work
E. coli flavoHb-NOD [6] = details: entry of O2 into the LT, value assumed for fitting, cited from earlier work
[7] = NO reductase activity (anaerobic); type: biochemical
Description: (§2) NADH oxidase activity was followed spectrophotometrically at 340 nm in a 1.0-ml cuvette containing 90 mM Tris chloride buffer, pH 8.2, 100 μM NADH, 200 μM O2, 0.1 μM FAD, 100 μg/ml BSA, and 0.3 mM EDTA and incubated at 37 °C. […] TMAO reductase activity was assayed by following the absorbance decrease at 340 nm in a 1.0-ml anaerobic reaction containing 12 U Aspergillus niger glucose oxidase, 5 mM glucose, 260 U catalase, 400 mM TMAO, 100 μM NADH, 0.1 μM FAD, 100 μg/ml BSA, and 0.3 mM EDTA in 90 mM Tris chloride pH 8.2 and incubated at 37 °C. […] Methyl viologen reductase activity was assayed by following the formation of the blue cation radical at 603 nm and by applying an extinction coefficient of 13,300 M^−1 cm^−1 in a 1.0-ml anaerobic reaction buffered with 10 mM potassium phosphate, pH 7.0, and containing 12 U glucose oxidase, 5 mM glucose, 260 U catalase, 100 μM NADH, 0.1 μM FAD, 100 μg/ml BSA, 0.3 mM EDTA, and 200 mM sodium chloride and incubated at 37 °C. NO reductase activity was assayed amperometrically at 37 °C in a 1.0-ml anaerobic reaction containing 2 μM NO, 100 μM NADH, 0.1 μM FAD, 12 U glucose oxidase, 5 mM glucose, 260 U catalase, 100 μg/ml BSA, and 0.3 mM EDTA buffered with 10 mM potassium phosphate pH 7.0. CO effects were tested at a final concentration of 50 μM as diluted from a 1 mM stock in water. […]

E. coli flavoHb-NOD [8] = tested on: E. coli flavoHb-NOD
Description: NOD activity was measured amperometrically in 100 mM phosphate buffer, pH 7.0, containing 0.3 mM EDTA, 100 μg/ml bovine serum albumin (BSA) (Fraction V), 100 μM NADH, 0.1 μM FAD with NO, O2, and N2 mixtures added as described ([4], [72]). NADH oxidase activity was followed spectrophotometrically at 340 nm in a 1.0-ml cuvette containing 90 mM Tris chloride buffer, pH 8.2, 100 μM NADH, 200 μM O2, 0.1 μM FAD, 100 μg/ml BSA, and 0.3 mM EDTA and incubated at 37 °C. Cytochrome b5 reductase activity was assayed at 37 °C by following the rate of absorbance increase at 555 nm in a 1.0-ml reaction buffered with 90 mM Tris chloride, pH 8.2, and containing 10 μM ferric cytochrome b5, 200 μM O2, 20 μM NADH, 0.1 μM FAD, 100 μg/ml BSA, and 0.3 mM EDTA. TMAO reductase activity was assayed by following the absorbance decrease at 340 nm in a 1.0-ml anaerobic reaction containing 12 U Aspergillus niger glucose oxidase, 5 mM glucose, 260 U catalase, 400 mM TMAO, 100 μM NADH, 0.1 μM FAD, 100 μg/ml BSA, and 0.3 mM EDTA in 90 mM Tris chloride pH 8.2 and incubated at 37 °C. Ngb reductase activity was assayed by following the absorbance increase at 424 nm in a 1.0-ml anaerobic reaction containing 12 U glucose oxidase, 5 mM glucose, 260 U catalase, 5 μM Ngb, 50 μM NADH, 0.1 μM FAD, 100 μg/ml BSA, and 0.3 mM EDTA in 90 mM Tris chloride buffer, pH 8.2, and incubated at 37 °C. Methyl viologen reductase activity was assayed by following the formation of the blue cation radical at 603 nm and by applying an extinction coefficient of 13,300 M^−1 cm^−1 in a 1.0-ml anaerobic reaction buffered with 10 mM potassium phosphate, pH 7.0, and containing 12 U glucose oxidase, 5 mM glucose, 260 U catalase, 100 μM NADH, 0.1 μM FAD, 100 μg/ml BSA, 0.3 mM EDTA, and 200 mM sodium chloride and incubated at 37 °C. NO reductase activity was assayed amperometrically at 37 °C in a 1.0-ml anaerobic reaction containing 2 μM NO, 100 μM NADH, 0.1 μM FAD, 12 U glucose oxidase, 5 mM glucose, 260 U catalase, 100 μg/ml BSA, and 0.3 mM EDTA buffered with 10 mM potassium phosphate pH 7.0. CO effects were tested at a final concentration of 50 μM as diluted from a 1 mM stock in water. All activities are reported relative to the heme content of flavoHb.

E. coli growth = tested on: E. coli growth; parameters: method as in PMID 11751865; details: atmosphere containing 5 μM O2 and 0.5 μM NO; cited from earlier work
[9] = Methyl viologen reductase activity; type: biochemical; details: 37 °C; anaerobic
Description: as §2

E. coli flavoHb [10] = biological target: T1, E. coli flavoHb; details: cited from earlier work
[11] = Fe2+ CO, 100 µM CO in the presence of 0.6 mM N2
[12] = Fe2+ O2, 100 µM CO in the presence of 1 mM O2

B1: WT: wild-type E. coli flavohemoglobin (flavoHb), an NO dioxygenase (NOD) (protein, UniProt P24232 1-396, looked up)
Flavohemoprotein: MLDAQTIATVKATIPLLVETGPKLTAHFYDRMFTHNPELKEIFNMSNQRNGDQREALFNAIAAYASNIENLPALLPAVEKIAQKHTSFQIKPEQYNIVGEHLLATLDEMFSPGQEVLDAWGKAYGVLANVFINREAEIYNENASKAGGWEGTRDFRIVAKTPRSALITSFELEPVDGGAVAEYRPGQYLGVWLKPEGFPHQEIRQYSLTRKPDGKGYRIAVKREEGGQVSNWLHNHANVGDVVKLVAPAGDFFMAVADDTPVTLISAGVGQTPMLAMLDTLAKAGHTAQVNWFHAAENGDVHAFADEVKELGQSLPRFTAHTWYRQPSEADRAKGQFDSEGLMDLSKLEGAFSDPTMQFYLCGPVGFMQFTAKQLVDLGVKQENIHYECFGPHKVL
k' fast [1, 11]: 2.9e+07 M⁻¹ s⁻¹ | k' slow [1, 11]: 2.7e+06 M⁻¹ s⁻¹ | τT [1, 11]: 500 ± 100 µs | k' fast [1, 12]: 2.9e+07 M⁻¹ s⁻¹ | k' slow [1, 12]: 1.9e+06 M⁻¹ s⁻¹ | τT [1, 12]: 70 ± 10 µs | k′fast ([1]; Fe^2+ CO, 20 °C): 1.4e+07 M⁻¹ s⁻¹ | k′slow ([1]; Fe^2+ CO, 20 °C): 1.4e+06 M⁻¹ s⁻¹ | τT ([1]; Fe^2+ CO, 20 °C): 175 ± 25 μs | Kd ([1]; Fe^2+ CO, 20 °C): 12 to 39 nM | k′fast ([1]; Fe^2+ NO, 20 °C): 3.1e+07 M⁻¹ s⁻¹ | k′slow ([1]; Fe^2+ NO, 20 °C): 8.5e+06 M⁻¹ s⁻¹ | τT ([1]; Fe^2+ NO, 20 °C): 40 ± 10 μs | Kd ([1]; Fe^2+ NO): 0.024 nM | k′fast ([1]; Fe^2+ O2, 20 °C): 3.3e+07 M⁻¹ s⁻¹ | k′slow ([1]; Fe^2+ O2, 20 °C): 1.4e+07 M⁻¹ s⁻¹ | τT ([1]; Fe^2+ O2, 20 °C): 70 ± 5 μs | k ([1]; Fe^2+ O2 dissociation, 20 °C): 0.20 s⁻¹ | k′fast ([1]; Fe^3+ NO, 20 °C): 4.6e+07 M⁻¹ s⁻¹ | k′slow ([1]; Fe^3+ NO, 20 °C): 1.2e+07 M⁻¹ s⁻¹ | τT ([1]; Fe^3+ NO, 20 °C): 18 ± 3 μs | Kd ([1]; Fe^3+ NO): 330000 nM | time for 90% activity recovery following NO binding ([1]; ferric NO form): 0.6 ms | time for 90% activity recovery following NO binding ([1]; ferrous NO species): 1.15e+07 ms | decrease of fraction of flavoHbFe^3+O2^− formed in the fast phase [2]: ~50% | τT for O2 rebinding [2]: ~55 μs | kET, heme reduction by FADH2 (maximum / apparent) (E. coli flavoHb [3]; 20 °C, absorbance at 430 nm): 120 s⁻¹ | maximal NADH-driven ET rate measured by stopped flow (E. coli flavoHb [3]; Fig. 9B): 160 s⁻¹ | k′H, bimolecular rate constant for hydride transfer NADH to FAD (E. coli flavoHb [4]): 1.5e+07 M⁻¹ s⁻¹ | Km (E. coli flavoHb-NOD [5]): ~2 µM | K1 (E. coli flavoHb-NOD [6]; 20 °C): 2 (2) Micromolar | K1 (E. coli flavoHb-NOD [6]; 37 °C): 2 (2) Micromolar | NO reductase activity ([7]; 37 °C, 2 μM NO, anaerobic): 0.19 s⁻¹ | time for 90% reversal in the steady state ([7]; with NO elimination via reduction): 23 s | Δv/Δ[NADH] (E. coli flavoHb-NOD [8]; 20 °C): 36 s⁻¹ µM⁻¹ | Δv/Δ[NADH] (E. coli flavoHb-NOD [8]; 20 °C, 130 nM NO): 30 s⁻¹ µM⁻¹ | Δv/Δ[NADH] (E. coli flavoHb-NOD [8]; 37 °C): 59 s⁻¹ µM⁻¹ | Δv/Δ[NADH] (E. coli flavoHb-NOD [8]; 37 °C, 130 nM NO): 59 s⁻¹ µM⁻¹ | protection of E. coli growth (E. coli growth): fully protects | methyl viologen reductase activity [9]: 0.36 s^−1 | kET previously reported (E. coli flavoHb [10]): 136 s⁻¹
